Read-outs that look alike come from different tables or passages of the source.
Assays:
PC3-PIP cells = test: Internalization of 64Cu-labeled dendrimers in PC3-PIP cells; type: cell-based; conditions: 64Cu-labeled dendrimer, incubation 1-120 min
Experimental: The PC3-PIP cells were used for the internalization study. The 12-well plates containing ~2.0 × 10^5 cells were incubated overnight in a humidified incubator at 37 °C with 5% CO2 and then washed with binding buffer (20 mM Tris, 150 mM NaCl, pH 7.4). Each solution of ^64Cu-labeled dendrimers (~6.0 × 10^5 CPM) in 0.4 mL of binding buffer was incubated with the cells for 1, 10, 30, 60, and 120 min, respectively, and then washed once with ice-cold binding buffer. The surface bound ^64Cu-labeled dendrimers were removed by incubating cells twice for 5 min with 0.5 mL of ice-cold low pH stripping buffer (150 mM NaCl, 50 mM glycine, pH 3.0) and collected in a culture tube. After incubation with 0.5 mL of 4 M NaOH at 37 °C for 15 min, the NaOH-solubilized cells were collected in separate culture tubes. The radioactivity of surface bound/internalized ^64Cu-labeled dendrimers was counted on a 2480 automatic gamma counter (PerkinElmer).

[1] = design: method as in PMID 23398590; conditions: estimated by dynamic light scattering of unfunctionalized analogues; cited from earlier work
[2] = test system: SCID mice bearing PC3-PIP and PC3-FLU xenografts; conditions: 64Cu-labeled dendrimer, i.v., 4 h p.i.
[3] = mouse, in vivo, iv, 64Cu-labeled dendrimer; for tissue uptake at 1 h: 1 h p.i.; for tissue uptake at 4 h: 4 h p.i.
[4] = test system: PC3-PIP (PSMA positive) and PC3-FLU (PSMA negative) cells; test: Cell uptake of 64Cu-labeled dendrimers in PC3-PIP and PC3-FLU cells; type: cell-based; conditions: 64Cu-labeled dendrimer, 1 h at 37 °C, n = 3
Experimental: Cell uptake experiments were conducted in the PSMA positive PC3-PIP cell lines and the PSMA negative PC-FLU cell lines. The cells (5.0 × 10^5) were seeded to a 6-well plate and incubated at 37 °C overnight in a humidified incubator with 5% CO2. After being rinsed with binding buffer (20 mM Tris, 150 mM NaCl, pH 7.4), the cells in binding buffer (500 µL) were incubated at 37 °C with ~6.0 × 10^5 CPM of ^64Cu-labeled dendrimers for 1 h, washed with cold binding buffer, and then trypsinized. The radioactivity of trypsinized cells was counted on a 2480 automatic gamma counter (PerkinElmer).

PSMA [5] = target: T1, PSMA (Homo sapiens, UniProt Q04609); test: Competitive cell-binding assay with 125I-labeled PSMA radioligand in PC3-PIP cells; conditions: read-out: IC50 (displacing 50% of the 125I-labeled PSMA radioligand bound to PC3-PIP cells), room temperature 2 h, n = 4
T1 construct: expressed in transfected cells; host or cells: PC3-PIP cells (PSMA positive)
T1 sequence (Q04609 whole entry): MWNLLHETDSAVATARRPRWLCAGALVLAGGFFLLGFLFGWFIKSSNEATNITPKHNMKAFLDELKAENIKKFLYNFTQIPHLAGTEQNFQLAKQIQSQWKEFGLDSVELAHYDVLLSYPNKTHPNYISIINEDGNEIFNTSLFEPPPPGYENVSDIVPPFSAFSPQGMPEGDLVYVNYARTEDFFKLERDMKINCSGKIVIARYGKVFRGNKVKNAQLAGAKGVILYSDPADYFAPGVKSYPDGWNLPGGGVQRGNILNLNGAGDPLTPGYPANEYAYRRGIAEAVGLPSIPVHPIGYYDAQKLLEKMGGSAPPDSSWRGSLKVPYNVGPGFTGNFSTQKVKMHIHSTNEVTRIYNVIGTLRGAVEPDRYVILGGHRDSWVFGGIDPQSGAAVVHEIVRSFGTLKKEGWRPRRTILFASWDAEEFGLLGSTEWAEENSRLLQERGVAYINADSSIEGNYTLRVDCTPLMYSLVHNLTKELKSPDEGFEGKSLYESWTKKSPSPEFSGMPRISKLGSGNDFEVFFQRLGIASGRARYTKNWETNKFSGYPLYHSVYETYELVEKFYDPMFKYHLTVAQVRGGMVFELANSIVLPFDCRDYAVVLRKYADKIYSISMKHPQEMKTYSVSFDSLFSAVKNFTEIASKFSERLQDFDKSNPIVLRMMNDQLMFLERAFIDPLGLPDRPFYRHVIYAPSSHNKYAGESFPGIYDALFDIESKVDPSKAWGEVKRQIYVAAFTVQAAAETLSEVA
Experimental: A reported PSMA ^125I-radioligand [21] was used as a PSMA-specific radioligand in the assay. PC3-PIP cells were suspended in Tris-buffered saline (TBS) and seeded on multiwell DV plates (Millipore) with 5 × 10^4 cells per well. […] The unbound ^125I-radioligand was removed by filtration. The wells were rinsed five times with cold TBS buffer. The filters were then collected and their radioactivity was measured on a 2480 automatic gamma counter (PerkinElmer).

[6] = Serum stability assay of 64Cu-labeled dendrimers; type: in vitro ADME, rat
Experimental: The stability of ^64Cu-labeled dendrimers was evaluated in rat serum. […] An aliquot of sample (10 µL) was mixed with 5 mM EDTA (100-fold molar excess) and incubated at 37 °C for 10 min. The resulting solution was analyzed by a Rita Star Radioisotope TLC Analyzer.

PSMA [7] = target: T1, PSMA; design: method as in PMID 15027864, PMID 25822623; conditions: cited from earlier work
[8] = In vivo organ uptake, Left Kidney
[9] = In vivo organ uptake, Right Kidney
[10] = In vivo tumor uptake, PC3-FLU, PSMA negative xenograft right shoulder
[11] = In vivo tumor uptake, PC3-PIP, PSMA positive xenograft left shoulder

SMILES: NCC1CCN(c2nc(NCCCOCCOCCOCCCNC(=O)CCCCCCCNC(=O)CC[C@H](NC(=O)N[C@@H](CCC(=O)O)C(=O)O)C(=O)O)nc(N3CCN(c4nc(NCCCOCCOCCOCCCNc5nc(NCCCOCCOCCOCCCNC(=O)CCC(C(=O)O)N6CCN(CC(=O)O)CCN(CC(=O)O)CCN(CC(=O)O)CC6)nc(NCCCOCCOCCOCCCNc6nc(N7CCN(c8nc(NCCCOCCOCCOCCCNC(=O)CCCCCCCNC(=O)CC[C@H](NC(=O)N[C@@H](CCC(=O)O)C(=O)O)C(=O)O)nc(N9CCC(CN)CC9)n8)CC7)nc(N7CCN(c8nc(NCCCOCCOCCOCCCNC(=O)CCCCCCCNC(=O)CC[C@H](NC(=O)N[C@@H](CCC(=O)O)C(=O)O)C(=O)O)nc(N9CCC(CN)CC9)n8)CC7)n6)n5)nc(N5CCN(c6nc(NCCCOCCOCCOCCCNC(=O)CCCCCCCNC(=O)CC[C@H](NC(=O)N[C@@H](CCC(=O)O)C(=O)O)C(=O)O)nc(N7CCC(CN)CC7)n6)CC5)n4)CC3)n2)CC1 (stereo partly shown) [G1-(DUPA)4]
- highest (maximum) internalization (PC3-PIP cells): 49%
- dimensions [1]: approximately 2 nm
- PC3-PIP to PC3-FLU uptake ratio (in vivo) [2]: 6.7 ± 3.0
- PC3-PIP to muscle uptake ratio [2]: 17.7 ± 5.5
- tissue uptake at 1 h ([3]; In vivo organ uptake, Bone): 0.08 ± 0.03 %ID/g
- tissue uptake at 4 h ([3]; In vivo organ uptake, Bone): 0.07 ± 0.01 %ID/g
- tissue uptake at 24 h ([3]; In vivo organ uptake, Bone, 24 h p.i.): 0.08 ± 0.02 %ID/g
- tissue uptake at 1 h ([3]; In vivo organ uptake, Brain): 0.03 ± 0.01 %ID/g
- tissue uptake at 4 h ([3]; In vivo organ uptake, Brain): 0.02 %ID/g
- tissue uptake at 24 h ([3]; In vivo organ uptake, Brain, 24 h p.i.): 0.07 %ID/g
- tissue uptake at 1 h ([3]; In vivo organ uptake, Heart): 0.16 ± 0.05 %ID/g
- tissue uptake at 4 h ([3]; In vivo organ uptake, Heart): 0.1 ± 0.02 %ID/g
- tissue uptake at 24 h ([3]; In vivo organ uptake, Heart, 24 h p.i.): 0.25 ± 0.05 %ID/g
- tissue uptake at 1 h [3, 8]: 53.3 ± 4.37 %ID/g
- tissue uptake at 4 h [3, 8]: 58.7 ± 4.98 %ID/g
- tissue uptake at 24 h ([3]; In vivo organ uptake, Left Kidney, 24 h p.i.): 54 ± 5.96 %ID/g
- tissue uptake at 1 h ([3]; In vivo organ uptake, Liver): 1.03 ± 0.16 %ID/g
- tissue uptake at 4 h ([3]; In vivo organ uptake, Liver): 1.2 ± 0.2 %ID/g
- tissue uptake at 24 h ([3]; In vivo organ uptake, Liver, 24 h p.i.): 1.93 ± 0.15 %ID/g
- tissue uptake at 1 h ([3]; In vivo organ uptake, Muscle): 0.06 ± 0.03 %ID/g
- tissue uptake at 4 h ([3]; In vivo organ uptake, Muscle): 0.05 ± 0.01 %ID/g
- tissue uptake at 24 h ([3]; In vivo organ uptake, Muscle, 24 h p.i.): 0.13 ± 0.03 %ID/g
- tissue uptake at 1 h [3, 9]: 56.8 ± 5.14 %ID/g
- tissue uptake at 4 h [3, 9]: 60 ± 3.27 %ID/g
- tissue uptake at 24 h ([3]; In vivo organ uptake, Right Kidney, 24 h p.i.): 55 ± 7.36 %ID/g
- tissue uptake at 1 h [3, 10]: 0.18 ± 0.05 %ID/g
- tissue uptake at 4 h [3, 10]: 0.13 ± 0.02 %ID/g
- tissue uptake at 24 h ([3]; In vivo tumor uptake, PC3-FLU, PSMA negative xenograft right shoulder, 24 h p.i.): 0.33 ± 0.06 %ID/g
- tissue uptake at 1 h [3, 11]: 0.99 ± 0.36 %ID/g
- tissue uptake at 4 h [3, 11]: 0.87 ± 0.4 %ID/g
- tissue uptake at 24 h ([3]; In vivo tumor uptake, PC3-PIP, PSMA positive xenograft left shoulder, 24 h p.i.): 0.81 ± 0.36 %ID/g
- tissue uptake at 24 h ([3]; level of kidney uptake, over 24 h p.i.): 45 to 55 %ID/g
- PC3-PIP to PC3-FLU cell uptake ratio [4]: 10
- IC50 (PSMA [5]): 282 nM
- serum stability [6]: stable in rat serum and remained intact over 24 h

SMILES: O=C(O)CCC(NC(=O)NC(CCC(=O)O)C(=O)O)C(=O)O (stereo not shown) [DUPA, 2-[3-(1,3-dicarboxypropyl)-ureido] pentanedioic acid]
- IC50 (PSMA [7]): 47 nM
- Ki (PSMA [7]): 8 nM
